According to patent US20210180089A1, “NANOPARTICLES FOR TRANSFECTION” (LOXEGEN HOLDINGS PTY LTD, priority 2018, published 2021):
Ends that are not written are not given here.

Experiment: Average particle diameter of peptide/DNA nanoparticles by ZetaPALS dynamic light scattering
Type: physicochemical
Procedure: The DNA was diluted to 50-100 ug/mL in 5mM HEPES pH 7.4. A peptide solution at a concentration of 100-180 ug/mL in 5 mM HEPES was prepared. A 250 uL volume of the DNA solution was transferred into a 2 mL Eppendorf tube. Using a 100 uL peptide, an equal volume of the peptide solution was titrated, at an appropriate rate to avoid aggregation, into the DNA solution while vortexing. The solution slowly turns translucent and no visible particles should occur. The particle size is measured using a dynamic light scattering (DLS) instrument (such as the Brookhaven ZetaPALS). The particle size should be below 100 nm, preferably below 80 nm. The nanoparticles were filtered through a 0.22 um sterile filter. The formulation was stored in a refrigerator (2-8 deg C.) until desired for use and/or for PEGylation. Where PEGylated peptide/DNA nanoparticles are required, a PEG-Zn solution was prepared in a separate tube at a concentration of about 400 mg/mL. 25-100 uL of the PEG solution was slowly added to 500 uL of the peptide/DNA nanoparticle preparation, depending on the degree of PEG-coating required. The particle size was measured by DLS. The particle size should be about 100-140 nm depending on the amount of PEG added. The formulation was store in a refrigerator (2-8 deg C.). Above describes a range for the peptide/DNA ratio which can be used in one embodiment. In a preferred example, the ratios used for nanoparticle preparation were: 100 ug/mL DNA and 100 ug/mL peptide mixed at equal volume. PEGylation: 50 uL of 440 mg/mL PEG-IDA-Zn into 500 uL nanoparticles as prepared above.

Row | Substance | Average Particle Diameter (via ZETA Pals particle size analysis) (GFP, PEG) | Average Particle Diameter (via ZETA Pals particle size analysis) (GFP, non-PEG) | Average Particle Diameter (via ZETA Pals particle size analysis) (luciferase, PEG) | Average Particle Diameter (via ZETA Pals particle size analysis) (luciferase, non-PEG)
1 | (H-Lys-His-Lys-His-His-Lys-His-Lys-His-His-Lys-His-Lys-His-His-Lys-His-Lys-His-Lys)4-Lys-Lys-Lys-His-His-His-His-Asn-His-His-His-His-OH (chain 1 H-KHKHHKHKHHKHKHHKHKHK; chain 2 KKKHHHHNHHHH-OH; also: four copies of chain 1 branched on core chain 2, attachment points not given here) [Peptide 2597, 9:11 Lys:His] | 90.9 nm (GFP, PEG) | 54.7 nm (GFP, non-PEG) | 86.0 nm (luciferase, PEG) | 51.3 nm (luciferase, non-PEG)
2 | (H-Lys-His-Lys-His-Lys-His-Lys-His-Lys-His-Lys-His-Lys-His-Lys-His-Lys-His-His-Lys)4-Lys-Lys-Lys-His-His-His-His-Asn-His-His-His-His-OH (chain 1 H-KHKHKHKHKHKHKHKHKHHK; chain 2 KKKHHHHNHHHH-OH; also: four copies of chain 1 branched on core chain 2, attachment points not given here) [Peptide 2596, 1:1 Lys:His] | 124.1 nm (GFP, PEG) | 82.1 nm (GFP, non-PEG) | 77.4 nm (luciferase, PEG) | 64.3 nm (luciferase, non-PEG)
3 | (H-Lys-His-Lys-His-His-Lys-His-His-Lys-His-His-Lys-His-His-Lys-His-His-Lys-His-Lys)4-Lys-Lys-Lys-His-His-His-His-Asn-His-His-His-His-OH (chain 1 H-KHKHHKHHKHHKHHKHHKHK; chain 2 KKKHHHHNHHHH-OH; also: four copies of chain 1 branched on core chain 2, attachment points not given here) [Peptide 2070, original peptide HK, 2:3 Lys:His, 4 branches] | 127.4 nm (GFP, PEG) | 66.0 nm (GFP, non-PEG) | 94.5 nm (luciferase, PEG) | 58.5 nm (luciferase, non-PEG)
4 | (H-Orn-His-Orn-His-His-Orn-His-His-Orn-His-His-Orn-His-His-Orn-His-His-Orn-His-Orn)4-Lys-Lys-Lys-His-His-His-His-Asn-His-His-His-His-OH [Peptide 2595] | 101.3 nm (GFP, PEG) | 73.7 nm (GFP, non-PEG) | 70.9 nm (luciferase, PEG) | 65.9 nm (luciferase, non-PEG)
